Biological target: Human lactoferrin (lactoferrin from human milk, Sigma) (UniProt P02788)
Sequence (P02788 20-710): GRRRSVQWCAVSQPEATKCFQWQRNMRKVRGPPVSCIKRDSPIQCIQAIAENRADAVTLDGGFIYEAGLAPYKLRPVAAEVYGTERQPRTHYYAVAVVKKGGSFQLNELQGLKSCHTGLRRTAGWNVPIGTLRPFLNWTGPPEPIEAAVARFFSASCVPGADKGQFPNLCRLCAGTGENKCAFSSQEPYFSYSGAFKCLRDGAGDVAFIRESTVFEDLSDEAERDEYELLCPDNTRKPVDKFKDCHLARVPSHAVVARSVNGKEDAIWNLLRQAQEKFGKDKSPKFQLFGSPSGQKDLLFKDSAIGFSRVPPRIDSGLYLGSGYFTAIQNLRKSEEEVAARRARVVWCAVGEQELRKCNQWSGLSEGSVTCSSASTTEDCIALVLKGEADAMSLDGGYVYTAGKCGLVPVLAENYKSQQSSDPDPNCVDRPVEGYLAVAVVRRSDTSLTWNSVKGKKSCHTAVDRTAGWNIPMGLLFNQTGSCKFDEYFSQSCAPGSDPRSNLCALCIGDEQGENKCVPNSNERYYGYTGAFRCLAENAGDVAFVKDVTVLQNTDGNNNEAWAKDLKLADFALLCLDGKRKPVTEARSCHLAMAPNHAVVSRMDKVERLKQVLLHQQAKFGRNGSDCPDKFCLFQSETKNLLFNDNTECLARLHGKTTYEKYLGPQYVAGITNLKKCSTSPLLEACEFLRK

EndoBI-1 D184N (Asp 184 of EndoBI-1 mutated to Asn184), recombinant, signal sequence and transmembrane domains deleted
shift in molecular weight on SDS-PAGE of human milk after overnight incubation: No change was observed when the milk sample was incubated with EndoBI-1 D184N

— patent US20190381150
